B1: FBXO3 (parent)
chain: DEEERRRRVFDVPIRRRRCSRLF
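Also: lentivirally expressed fusions sorted by FACS into six bins by GFP to DsRed ratio, PSI derived from sequencing read proportions per bin multiplied by bin number.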

The variants in this series derive from B1. Kind of series: protein stability index of a GFP-peptide fusion (GPS, HEK-293T) (PSI 1-6); higher = more stable. The following applies: c terminus: native.
With DEEERRRRVFDVHIRRRRCSRLF, the protein stability index worked out at 2.95.
As to DEEERRRRVFDVKIRRRRCSRLF, the protein stability index came out at 2.9.
For the variant DEEERRRRVFDVDIRRRRCSRLF, the protein stability index was 2.15.
As for DEEERRRRVFDVGIRRRRCSRLF, the protein stability index was 2.24.
With DEEERRRRVFDVQIRRRRCSRLF, the protein stability index amounted to 2.2.
In the case of DEEERRRRVFDVWIRRRRCSRLF, the protein stability index came out at 2.87.
On to DEEERRRRVFDVMIRRRRCSRLF, for which the protein stability index stood at 2.19.
With DEEERRRRVFDVRIRRRRCSRLF the figure was 1.72; with DEEERRRRVFDVAIRRRRCSRLF, 2.46.
Turning to DEEERRRRVFDVEIRRRRCSRLF, the protein stability index is 2.15.
Regarding DEEERRRRVFDVSIRRRRCSRLF, the protein stability index was found to be 2.23.
As to DEEERRRRVFDVTIRRRRCSRLF, the protein stability index was found to be 1.44.
With DEEERRRRVFDVCIRRRRCSRLF the figure was 2.98.
With DEEERRRRVFDVVIRRRRCSRLF the figure was 2.89.
Consider DEEERRRRVFDVYIRRRRCSRLF, for which the protein stability index was 2.8.
For the variant DEEERRRRVFDVLIRRRRCSRLF, the protein stability index turned out to be 3.65.
With DEEERRRRVFDVFIRRRRCSRLF the figure was 3.42; with DEEERRRRVFDVNIRRRRCSRLF, 2.07; with DEEERRRRVFDVPIRRLRCSRLF, 1.84.
In the case of DEEERRRRVFDVPIRRYRCSRLF, the protein stability index worked out at 1.58.
For the variant DEEERRRRVFDVPIRRNRCSRLF, the protein stability index was found to be 2.09.
Consider DEEERRRRVFDVPIRRHRCSRLF, for which the protein stability index worked out at 2.21.
With DEEERRRRVFDVPIRRVRCSRLF the figure was 2.06.
Take DEEERRRRVFDVPIRRERCSRLF: the protein stability index was 2.27.
Turning to DEEERRRRVFDVPIRRCRCSRLF, the protein stability index was determined as 1.71.
Turning to DEEERRRRVFDVPIRRPRCSRLF, the protein stability index was determined as 1.96.
As for DEEERRRRVFDVPIRRARCSRLF, the protein stability index came to 2.5.
On to DEEERRRRVFDVPIRRIRCSRLF, for which the protein stability index is 1.84.
On to DEEERRRRVFDVPIRRDRCSRLF, for which the protein stability index turned out to be 2.17.
On to DEEERRRRVFDVPIRRTRCSRLF, for which the protein stability index turned out to be 2.82.
As to DEEERRRRVFDVPIRRGRCSRLF, the protein stability index came out at 1.98.
Turning to DEEERRRRVFDVPIRRQRCSRLF, the protein stability index was determined as 2.5.
DEEERRRRVFDVPIRRKRCSRLF: the protein stability index was determined as 3.27.
For DEEERRRRVFDVPIRRFRCSRLF, the protein stability index came to 1.87.
Take DEEERRRRVFDVPIRRWRCSRLF: the protein stability index stood at 2.83.
Regarding DEEERRRRVFDVPIRRSRCSRLF, the protein stability index stood at 1.77.
For the variant DEEERRRRVFDVPIRRMRCSRLF, the protein stability index is 2.27.
On to DEEERRRRVFDVPNRRRRCSRLF, for which the protein stability index came to 2.25.
On to DEEERRRRVFDVPLRRRRCSRLF, for which the protein stability index stood at 2.56.
In the case of DEEERRRRVFDVPHRRRRCSRLF, the protein stability index came to 2.48.
DEEERRRRVFDVPDRRRRCSRLF: the protein stability index was determined as 2.14.
With DEEERRRRVFDVPFRRRRCSRLF, the protein stability index was determined as 2.2.
As for DEEERRRRVFDVPARRRRCSRLF, the protein stability index was 2.64.
On to DEEERRRRVFDVPKRRRRCSRLF, for which the protein stability index came to 3.78.
Take DEEERRRRVFDVPPRRRRCSRLF: the protein stability index amounted to 3.4.
As to DEEERRRRVFDVPVRRRRCSRLF, the protein stability index stood at 3.27.
With DEEERRRRVFDVPSRRRRCSRLF the figure was 2.49; with DEEERRRRVFDVPRRRRRCSRLF, 3.33; with DEEERRRRVFDVPMRRRRCSRLF, 2.63.
Take DEEERRRRVFDVPTRRRRCSRLF: the protein stability index is 3.66.
As for DEEERRRRVFDVPGRRRRCSRLF, the protein stability index was found to be 3.04.
With DEEERRRRVFDVPERRRRCSRLF the figure was 2.46.
For the variant DEEERRRRVFDVPYRRRRCSRLF, the protein stability index is 2.4.
In the case of DEEERRRRVFDVPCRRRRCSRLF, the protein stability index was 2.38.
Regarding DEEERRRRVFDVPQRRRRCSRLF, the protein stability index was determined as 2.53.
DEEERRRRVFDVPWRRRRCSRLF: the protein stability index amounted to 2.7.
On to DEEERRRRVFDVPIRRRWCSRLF, for which the protein stability index was 2.31.
For the variant DEEERRRRVFDVPIRRRNCSRLF, the protein stability index was found to be 1.76.
With DEEERRRRVFDVPIRRRKCSRLF the figure was 2.83; with DEEERRRRVFDVPIRRRMCSRLF, 2.31.
For DEEERRRRVFDVPIRRRGCSRLF, the protein stability index came out at 3.74.
Take DEEERRRRVFDVPIRRRFCSRLF: the protein stability index is 1.57.
On to DEEERRRRVFDVPIRRRCCSRLF, for which the protein stability index is 2.29.
Take DEEERRRRVFDVPIRRRTCSRLF: the protein stability index was 1.7.
For DEEERRRRVFDVPIRRRECSRLF, the protein stability index was 2.38.
Consider DEEERRRRVFDVPIRRRSCSRLF, for which the protein stability index turned out to be 2.26.
With DEEERRRRVFDVPIRRRHCSRLF the figure was 2.18; with DEEERRRRVFDVPIRRRICSRLF, 1.34; with DEEERRRRVFDVPIRRRACSRLF, 1.69.
Regarding DEEERRRRVFDVPIRRRYCSRLF, the protein stability index was 1.95.
For DEEERRRRVFDVPIRRRVCSRLF, the protein stability index was determined as 1.83.
In the case of DEEERRRRVFDVPIRRRPCSRLF, the protein stability index was found to be 1.7.
Consider DEEERRRRVFDVPIRRRLCSRLF, for which the protein stability index is 2.68.
Consider DEEERRRRVFDVPIRRRQCSRLF, for which the protein stability index came out at 1.78.
With DEEERRRRVFDVPIQRRRCSRLF the figure was 2.27.
Regarding DEEERRRRVFDVPILRRRCSRLF, the protein stability index turned out to be 1.98.
With DEEERRRRVFDVPIFRRRCSRLF, the protein stability index was 1.93.
With DEEERRRRVFDVPIIRRRCSRLF the figure was 2.31; with DEEERRRRVFDVPIMRRRCSRLF, 1.72; with DEEERRRRVFDVPIGRRRCSRLF, 2.74.
Consider DEEERRRRVFDVPIKRRRCSRLF, for which the protein stability index turned out to be 3.65.
For the variant DEEERRRRVFDVPICRRRCSRLF, the protein stability index came to 2.99.
In the case of DEEERRRRVFDVPIVRRRCSRLF, the protein stability index was 2.78.
Turning to DEEERRRRVFDVPIPRRRCSRLF, the protein stability index turned out to be 2.56.
As to DEEERRRRVFDVPITRRRCSRLF, the protein stability index is 2.72.
With DEEERRRRVFDVPIDRRRCSRLF, the protein stability index is 2.27.
For DEEERRRRVFDVPIARRRCSRLF, the protein stability index worked out at 2.88.
In the case of DEEERRRRVFDVPISRRRCSRLF, the protein stability index came to 2.39.
Take DEEERRRRVFDVPINRRRCSRLF: the protein stability index was found to be 2.21.
With DEEERRRRVFDVPIHRRRCSRLF the figure was 1.85.
Turning to DEEERRRRVFDVPIERRRCSRLF, the protein stability index came out at 2.44.
With DEEERRRRVFDVPIYRRRCSRLF the figure was 1.88; with DEEERRRRVFDVPIRRRRCTRLF, 1.91.
As for DEEERRRRVFDVPIRRRRCVRLF, the protein stability index is 2.06.
DEEERRRRVFDVPIRRRRCPRLF: the protein stability index is 2.51.
For DEEERRRRVFDVPIRRRRCCRLF, the protein stability index was 4.36.
Consider DEEERRRRVFDVPIRRRRCLRLF, for which the protein stability index is 2.36.
